Source: paper PMC3883574

Molecular target: double-domain activation-associated secreted protein (ASP) (Cooperia oncophora (endogenous in adult worms))
Assay: reducing against non-reducing SDS-PAGE, bands identified by MALDI-TOF MS

“double-domain activation-associated secreted protein (ASP) (natural protein)” was tested, and the stoichiometry N was 2.
